Targets include TIEG1(DBD) T445A (Homo sapiens, UniProt Q13118 363-480, T445A); TIEG1(DBD) S384A (Homo sapiens, UniProt Q13118 363-480, S384A); TIEG1(DBD) S384A/T445A (Homo sapiens, UniProt Q13118 363-480, S384A;T445A); TIEG1(DBD) T445E (Homo sapiens, UniProt Q13118 363-480, T445E); TIEG1(DBD) S384E (Homo sapiens, UniProt Q13118 363-480, S384E); TIEG1(DBD) (Homo sapiens, UniProt Q13118 363-480); TIEG1(DBD) S384E/T445E (Homo sapiens, UniProt Q13118 363-480, S384E;T445E).

What all share (experiment): EMSA
(In general: In EMSA bound probe runs differently from free probe, usually more slowly.)

Experimental findings from publication PMC3092057 are described below.

Chain of TIEG1(DBD) T445A (Q13118 363-480 T445A): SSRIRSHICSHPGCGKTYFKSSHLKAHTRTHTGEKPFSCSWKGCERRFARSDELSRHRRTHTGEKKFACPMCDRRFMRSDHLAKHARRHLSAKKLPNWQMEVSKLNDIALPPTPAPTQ
Chain of TIEG1(DBD) S384E (Q13118 363-480 S384E): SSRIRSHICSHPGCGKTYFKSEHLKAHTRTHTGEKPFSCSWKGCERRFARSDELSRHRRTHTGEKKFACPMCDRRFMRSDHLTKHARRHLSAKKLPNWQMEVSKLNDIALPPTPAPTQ
Chain of TIEG1(DBD) S384A (Q13118 363-480 S384A): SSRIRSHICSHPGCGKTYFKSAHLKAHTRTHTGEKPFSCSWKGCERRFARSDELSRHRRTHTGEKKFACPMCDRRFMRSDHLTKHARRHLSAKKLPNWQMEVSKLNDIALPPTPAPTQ
Chain of TIEG1(DBD) (Q13118 363-480): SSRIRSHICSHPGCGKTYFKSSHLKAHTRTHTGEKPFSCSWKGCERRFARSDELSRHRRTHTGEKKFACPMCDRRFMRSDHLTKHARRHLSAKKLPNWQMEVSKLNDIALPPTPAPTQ
Chain of TIEG1(DBD) S384E/T445E (Q13118 363-480 S384E/T445E): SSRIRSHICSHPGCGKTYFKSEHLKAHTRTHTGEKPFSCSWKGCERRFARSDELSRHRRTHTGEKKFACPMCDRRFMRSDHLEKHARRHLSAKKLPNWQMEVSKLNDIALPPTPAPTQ
Chain of TIEG1(DBD) T445E (Q13118 363-480 T445E): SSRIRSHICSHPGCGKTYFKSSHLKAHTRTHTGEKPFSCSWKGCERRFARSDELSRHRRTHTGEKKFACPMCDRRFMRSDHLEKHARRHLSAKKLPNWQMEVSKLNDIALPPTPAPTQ
Chain of TIEG1(DBD) S384A/T445A (Q13118 363-480 S384A/T445A): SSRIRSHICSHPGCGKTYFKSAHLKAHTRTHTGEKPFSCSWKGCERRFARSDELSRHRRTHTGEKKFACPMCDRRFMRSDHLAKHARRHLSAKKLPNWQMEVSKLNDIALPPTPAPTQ

B1: set I TIEG1 site (dsDNA)
DNA 1: TGCAGTGAAAAGGGGGTGTGTCAGGATGC
DNA 2: TGCATCCTGACACACCCCCTTTTCACTGC
Consider B1, for which the binding result with TIEG1(DBD) T445A was “binds”; with TIEG1(DBD) S384A it was “binds”; with TIEG1(DBD) S384A/T445A, “binds”; with TIEG1(DBD) T445E, “binds”; in the data set with TIEG1(DBD) S384E, “no binding”; in the data set with TIEG1(DBD), “binds”. Also, the binding result in the data set with TIEG1(DBD) S384E/T445E was “no binding”.
